Numbering of substitutions follows the chain as printed.
T1: Activin A (UniProt P08476 311-426)
T1 sequence (looked up): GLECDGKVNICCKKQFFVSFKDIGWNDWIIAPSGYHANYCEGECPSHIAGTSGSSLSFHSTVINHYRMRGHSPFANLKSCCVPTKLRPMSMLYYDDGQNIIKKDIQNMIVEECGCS

T2: BMP-10 (UniProt O95393 317-424)
T2 sequence (looked up): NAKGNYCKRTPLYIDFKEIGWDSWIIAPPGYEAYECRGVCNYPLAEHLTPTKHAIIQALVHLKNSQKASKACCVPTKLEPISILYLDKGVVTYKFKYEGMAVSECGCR

T3: Activin B (UniProt P09529 293-407)
T3 sequence (looked up): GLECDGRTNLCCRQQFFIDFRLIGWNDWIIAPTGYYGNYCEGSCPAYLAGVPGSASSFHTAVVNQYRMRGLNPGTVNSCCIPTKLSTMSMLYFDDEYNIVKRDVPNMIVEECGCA

T4: growth differentiation factor 8 (GDF-8) (UniProt O14793 267-375)
T4 construct: also called myostatin
T4 sequence (looked up): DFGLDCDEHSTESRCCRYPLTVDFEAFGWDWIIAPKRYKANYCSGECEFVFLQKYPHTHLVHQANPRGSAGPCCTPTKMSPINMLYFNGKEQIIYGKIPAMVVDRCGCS

T5: BMP-9 (UniProt Q9UK05 320-429)
T5 construct: also called bone morphogenetic protein 9
T5 sequence (looked up): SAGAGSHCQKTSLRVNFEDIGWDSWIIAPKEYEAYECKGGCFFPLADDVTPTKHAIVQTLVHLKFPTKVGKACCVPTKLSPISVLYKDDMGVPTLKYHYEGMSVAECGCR

T6: GDF-11 (UniProt O95390 299-407)
T6 construct: also called growth and differentiation factor 11
T6 sequence (looked up): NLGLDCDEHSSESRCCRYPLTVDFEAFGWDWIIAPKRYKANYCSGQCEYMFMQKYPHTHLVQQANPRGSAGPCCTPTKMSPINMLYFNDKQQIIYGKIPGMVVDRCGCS

B1: ActRIIB (SEQ ID NO: 31) Fc protein (Fc fusion)
chain: GRGEAETRECIYYNANWELERTNQSGLERCEGEQDKRLHCYASWRNSSGTIELVKKGCWLDDFNCYDRQECVATEENPQVYFCCCEGNFCNERFTHLPEAGGPEVTYEPPPTAPT
notes: also called ActRII-Fc; wild-type extracellular ActRIIB; not shown: linker (if any) and Fc domain
B2: ActRIIB-A2 (SEQ ID NO: 121) chimera-Fc protein (Fc fusion)
chain: B1 chain with L19K, E20D
notes: Tested as chimera-Fc protein; not shown: linker (if any) and Fc domain
B3: ActRIIB-A3 (SEQ ID NO: 122) chimera-Fc protein (Fc fusion)
chain: B1 chain with E31Y, E33D, Q34K
notes: as for B2
B4: ActRIIB-A5 (SEQ ID NO: 123) chimera-Fc protein (Fc fusion)
chain: B1 chain with F63I, Q69T, E70D
notes: as for B2
B5: ActRIIB-A6 (SEQ ID NO: 124) chimera-Fc protein (Fc fusion)
chain: B1 chain with E75K, E76D, N77S, Q79E
notes: as for B2
B6: ActRIIB-A7 (SEQ ID NO: 125) chimera-Fc protein (Fc fusion)
chain: B1 chain with F89M
notes: as for B2
B7: ActRIIB-B1B4 (SEQ ID NO: 117) chimera-Fc protein (Fc fusion)
chain: B1 chain with I11L, Y12F, Y13F, T50S, L53I, K56Q
notes: as for B2
B8: ActRIIB-B1B7 (SEQ ID NO: 116) chimera-Fc protein (Fc fusion)
chain: B1 chain with I11L, Y12F, Y13F, R93K, T95S, H96Y, L97F
notes: as for B2
B9: ActRIIB-B2 (SEQ ID NO: 111) chimera-Fc protein (Fc fusion)
chain: B1 chain with S25T, L27V, R29P
notes: as for B2
B10: ActRIIB-B3 (SEQ ID NO: 112) chimera-Fc protein (Fc fusion)
chain: B1 chain with L38R, Y41F, S43T, R45K, S47I
notes: as for B2
B11: ActRIIB-B5 (SEQ ID NO: 114) chimera-Fc protein (Fc fusion)
chain: B1 chain with A73E, T74K
notes: as for B2
B12: ActRIIB-B7 (SEQ ID NO: 115) chimera-Fc protein (Fc fusion)
chain: B1 chain with R93K, T95S, H96Y, L97F
notes: as for B2
B13: ActRIIB-B1B2B3B4 (SEQ ID NO: 119) chimera-Fc protein (Fc fusion)
chain: GRGEAETRECLFFNANWELERTNQTGVEPCEGEQDKRRHCFATWKNISGSIEIVKQGCWLDDFNCYDRQECVATEENPQVYFCCCEGNFCNERFTHLPEAGGPEVTYEPPPTAPT
notes: as for B2
B14: ActRIIB-A8 (SEQ ID NO: 126) chimera-Fc protein (Fc fusion)
chain: GRGEAETRECIYYNANWELERTNQSGLERCEGEQDKRLHCYASWRNSSGTIELVKKGCWLDDFNCYDRQECVATEENPQVYFCCCEGNFCNERFTHLPEMEVTQPTS
notes: as for B2
B15: ActRIIB-A1 (SEQ ID NO: 120) chimera-Fc protein (Fc fusion, not shown: a dimerising Fc or GST)
chain: GAILGRSETQECIYYNANWELERTNQSGLERCEGEQDKRLHCYASWRNSSGTIELVKKGCWLDDFNCYDRQECVATEENPQVYFCCCEGNFCNERFTHLPEAGGPEVTYEPPPTAPT

Target: T1, Activin A
Experiment: SPR (Biacore 8K), Fc protein captured on anti-human IgG, ligand injected
Method: (§1) The Cytiva Biacore 8k was used to measure the kinetics of the interactions between the ActRII- and chimera-Fc proteins and Activin A/Activin B/growth differentiation factor 8 (GDF-8)/GDF-11/BMP-9/BMP-10. Series S CM4 Sensor Chips were immobilized with anti-human capture antibody using the reagents and protocol in the Biacore Human Antibody Capture Kit (GE Life Sciences). Briefly, anti-human IgG was diluted to 25 μg/mL in immobilization buffer. The carboxylated surface of the sensor was activated by injecting a mixture of EDC and NHS. The anti-human IgG was injected into the activated sensor chip flow cells at 10 μL/min for a total of 7 minutes until the chip reached an immobilization level of 3000 resonance units (RU). Ethanolamine was injected to deactivate the sensor surfaces. The chip has 8 flow cells to be used for binding analysis, each with an in-line reference surface to subtract instrument noise and non-specific binding to the sensor chip. The ActRII- and chimera-Fc proteins were captured in their own flow cell to allow for a maximum analyte binding response of 20-30 RU. This was done by injecting 10-20 μL of the ActRII- and chimera-Fc proteins into the flow cells at a concentration of 2 μg/mL until 60-90 RU was captured. Ligand at a single concentration was injected at […] for 60 seconds and then allowed to dissociate under buffer flow for no less than 5 minutes. After the cycle completed, captured protein was stripped from the chip with an injection of 3 M magnesium chloride, the regeneration buffer provided with the Biacore Human Antibody Capture Kit. Each ligand was injected in a concentration series, including a buffer only 0 nM concentration to serve as a double reference for subtracting out instrument noise. The data were analyzed using the Biacore Insight Evaluation Software.

Point of comparison: B5, Kd 10.4 pM. Against it:
- B1 — within 1.5-fold, 10.6 pM
- B2 — 3.3-fold higher, 34.7 pM
- B3 — 1.6-fold higher, 16.5 pM
- B4 — 2.2-fold higher, 22.8 pM
- B6 — 1.6-fold higher, 16.9 pM
- B7 — within 1.5-fold, 10.8 pM
- B8 — lower, < 1 pM
- B9 — lower, < 1 pM
- B10 — 6.8-fold lower, 1.52 pM
- B11 — 3.2-fold lower, 3.27 pM
- B12 — lower, < 1 pM
- B13 — 1.6-fold lower, 6.6 pM
- B14 — 4.2-fold higher, 44.2 pM

Target: T2, BMP-10
Experiment: as above
Method: as §1

Point of comparison: B11, Kd 41.4 pM. Against it:
- B2 — within 1.5-fold, 29.8 pM
- B3 — 2.6-fold lower, 15.9 pM
- B4 — 2.7-fold lower, 15.2 pM
- B5 — 4.3-fold lower, 9.69 pM
- B6 — 4.7-fold lower, 8.72 pM
- B7 — 1.8-fold higher, 76.1 pM
- B8 — 2.7-fold lower, 15.6 pM
- B9 — 2-fold lower, 20.5 pM
- B10 — 4.2-fold higher, 175 pM
- B12 — lower, < 1 pM
- B13 — 8.9-fold higher, 369 pM
- B14 — within 1.5-fold, 29.2 pM

Target: T3, Activin B
Experiment: as above
Method: as §1

Point of comparison: B5, Kd 1 pM. Against it:
- B1 — lower, < 1 pM
- B2 — 8.8-fold higher, 8.78 pM
- B3 — lower, < 1 pM
- B4 — 4.9-fold higher, 4.91 pM
- B6 — lower, < 1 pM
- B7 — 70-fold higher, 70.2 pM
- B8 — lower, < 1 pM
- B9 — 12-fold higher, 11.6 pM
- B10 — 5.8-fold higher, 5.81 pM
- B11 — 16-fold higher, 15.8 pM
- B12 — lower, < 1 pM
- B13 — 20-fold higher, 19.7 pM
- B14 — lower, < 1 pM

Target: T4, growth differentiation factor 8 (GDF-8)
Experiment: as above
Method: as §1

Point of comparison: B8, Kd 3.53 pM. Against it:
- B2 — 11-fold higher, 39.3 pM
- B3 — lower, < 1 pM
- B4 — 4.7-fold higher, 16.5 pM
- B5 — 8.2-fold higher, 28.8 pM
- B6 — lower, < 1 pM
- B7 — 20-fold higher, 71.8 pM
- B9 — lower, < 1 pM
- B10 — 2.9-fold higher, 10.4 pM
- B11 — 2.9-fold higher, 10.2 pM
- B12 — within 1.5-fold, 3.46 pM
- B13 — within 1.5-fold, 3.54 pM
- B14 — within 1.5-fold, 4.23 pM

Target: T5, BMP-9
Experiment: as above
Method: as §1

Point of comparison: B14, Kd 74 pM. Against it:
- B2 — 4.5-fold lower, 16.6 pM
- B3 — 6-fold lower, 12.3 pM
- B4 — 1.9-fold higher, 143 pM
- B5 — 7.7-fold lower, 9.62 pM
- B6 — 3.9-fold lower, 19.1 pM
- B7 — 1.9-fold lower, 39.8 pM
- B8 — 250-fold higher, 18600 pM
- B9 — 23-fold lower, 3.27 pM
- B10 — 4.9-fold higher, 361 pM
- B11 — within 1.5-fold, 63.2 pM
- B12 — 3.7-fold lower, 20.2 pM
- B13 — 15-fold higher, 1080 pM

Target: T6, GDF-11
Experiment: as above
Method: as §1

Point of comparison: B7, Kd 29.2 pM. Against it:
- B2 — lower, < 1 pM
- B3 — lower, < 1 pM
- B4 — 5.2-fold lower, 5.66 pM
- B5 — lower, < 1 pM
- B6 — lower, < 1 pM
- B8 — lower, < 1 pM
- B9 — lower, < 1 pM
- B10 — 25-fold lower, 1.17 pM
- B11 — lower, < 1 pM
- B12 — lower, < 1 pM
- B13 — lower, < 1 pM
- B14 — lower, < 1 pM

Target: T1, Activin A
Experiment: cell-based or functional assay

Point of comparison: B8, “IC50, SBE-luciferase reporter in HEK293 cells” value (“IC50, SBE-luciferase reporter” below) 0.094 µg/mL. Against it:
- B2 — within 1.5-fold, 0.078 µg/mL
- B3 — 1.7-fold lower, 0.056 µg/mL
- B4 — 1.6-fold lower, 0.057 µg/mL
- B5 — within 1.5-fold, 0.089 µg/mL
- B6 — 1.6-fold lower, 0.057 µg/mL
- B7 — 3.7-fold higher, 0.35 µg/mL
- B9 — within 1.5-fold, 0.14 µg/mL
- B10 — within 1.5-fold, 0.07 µg/mL
- B11 — within 1.5-fold, 0.069 µg/mL
- B12 — within 1.5-fold, 0.067 µg/mL
- B13 — within 1.5-fold, 0.13 µg/mL
- B15 — within 1.5-fold, 0.075 µg/mL
- B14 — 2.4-fold higher, 0.23 µg/mL

Target: T3, Activin B
Experiment: cell-based or functional assay

Point of comparison: B11, “IC50, SBE-luciferase reporter” value 0.11 µg/mL. Against it:
- B2 — within 1.5-fold, 0.13 µg/mL
- B3 — within 1.5-fold, 0.075 µg/mL
- B4 — 1.5-fold lower, 0.072 µg/mL
- B5 — within 1.5-fold, 0.14 µg/mL
- B6 — 1.5-fold lower, 0.073 µg/mL
- B7 — 3.1-fold higher, 0.34 µg/mL
- B8 — 1.6-fold higher, 0.18 µg/mL
- B9 — 1.5-fold higher, 0.17 µg/mL
- B10 — within 1.5-fold, 0.096 µg/mL
- B12 — within 1.5-fold, 0.12 µg/mL
- B13 — within 1.5-fold, 0.086 µg/mL
- B15 — 1.5-fold lower, 0.072 µg/mL
- B14 — 2.1-fold lower, 0.052 µg/mL

Target: T5, BMP-9
Experiment: cell-based or functional assay

Point of comparison: B13, “IC50, BRE-luciferase reporter in C2C12 cells” value 0.36 µg/mL. Against it:
- B2 — 4.4-fold lower, 0.082 µg/mL
- B3 — 3.6-fold lower, 0.1 µg/mL
- B4 — within 1.5-fold, 0.4 µg/mL
- B5 — 1.6-fold lower, 0.23 µg/mL
- B6 — 5.9-fold lower, 0.061 µg/mL
- B7 — within 1.5-fold, 0.39 µg/mL
- B8 — 5.4-fold lower, 0.067 µg/mL
- B9 — within 1.5-fold, 0.3 µg/mL
- B10 — within 1.5-fold, 0.41 µg/mL
- B11 — 16-fold lower, 0.022 µg/mL
- B12 — 11-fold lower, 0.032 µg/mL
- B15 — 2.6-fold lower, 0.14 µg/mL
- B14 — 10-fold higher, 3.6 µg/mL

Target: T6, GDF-11
Experiment: cell-based or functional assay

Point of comparison: B4, “IC50, SBE-luciferase reporter” value 0.13 µg/mL. Against it:
- B2 — 2.3-fold higher, 0.3 µg/mL
- B3 — within 1.5-fold, 0.15 µg/mL
- B5 — 1.9-fold higher, 0.25 µg/mL
- B6 — the same, 0.13 µg/mL
- B7 — 5.9-fold higher, 0.77 µg/mL
- B8 — within 1.5-fold, 0.14 µg/mL
- B9 — 2.1-fold higher, 0.27 µg/mL
- B10 — within 1.5-fold, 0.14 µg/mL
- B11 — within 1.5-fold, 0.096 µg/mL
- B12 — within 1.5-fold, 0.15 µg/mL
- B13 — within 1.5-fold, 0.14 µg/mL
- B15 — within 1.5-fold, 0.14 µg/mL
- B14 — the same, 0.13 µg/mL
